This note sets out measurements from US20260176336A1 (MESTAG THERAPEUTICS, published 2026).

B1: Clone 4.16 (bispecific antibody)
heavy 1: not shown
heavy 2: QVQLVQSGTEVKKPGASVKVSCKASGYTFTGYYMNWVRQAPGQGLEWVGWINPNSGDTNFAQKFQGRVTMTRDSSISTAYMELSRLRSDDTAVYYCARQFRGYSYGYGMDVWGKGTTVTVSSASTKGPSVFPLAPSSKSTSGGTAALGCLVKDYFPEPVTVSWNSGALTSGVHTFPAVLQSSGLYSLSSVVTVPSSSLGTQTYICNVNHKPSNTKVDKKVEPKSCDKTHTCPPCPAPEAAGGPSVFLFPPKPKDTLMISRTPEVTCVVVDVSHEDPEVKFNWYVDGVEVHNAKTKPREEQYNSTYRVVSVLTVLHQDWLNGKEYKCKVSNKALPAPIEKTISKAKGQPREPQVCTLPPSRDELTKNQVSLSCAVKGFYPSDIAVEWESNGQPENNYKTTPPVLDSDGSFFLVSKLTVDKSRWQQGNVFSCSVMHEALHNHYTQKSLSLSPG
light: not shown
B2: Clone 4.17 (bispecific antibody)
heavy 1: not shown
heavy 2: QLQLQESGPGLVKPSETLSLTCTVSGGSISSSTYYWGWIRQPPGKGLEWIGSIFYSGNTYYNPSLKSRVTISVDTSKNQFSLRLNSVTAADTAVYYCAREIIEPRPGYFDYWGQGTLVTVSSASTKGPSVFPLAPSSKSTSGGTAALGCLVKDYFPEPVTVSWNSGALTSGVHTFPAVLQSSGLYSLSSVVTVPSSSLGTQTYICNVNHKPSNTKVDKKVEPKSCDKTHTCPPCPAPEAAGGPSVFLFPPKPKDTLMISRTPEVTCVVVDVSHEDPEVKFNWYVDGVEVHNAKTKPREEQYNSTYRVVSVLTVLHQDWLNGKEYKCKVSNKALPAPIEKTISKAKGQPREPQVCTLPPSRDELTKNQVSLSCAVKGFYPSDIAVEWESNGQPENNYKTTPPVLDSDGSFFLVSKLTVDKSRWQQGNVFSCSVMHEALHNHYTQKSLSLSPG
light: not shown
B3: Clone 4.18 (bispecific antibody)
heavy 1: not shown
heavy 2: B2 heavy 2
light: not shown
B4: Clone 1.2 (VHH, not shown: small tags and cut ends)
VHH: EVQLVESGGGLVQPGGSLRLSCAASGSSIFSFEIMAWYRQAPGKQRELVAVINKGGEANYPDSVEGRFTISRDNAKNTVYLQMNSLRPEDTAVYYCNADAVPHGSYWGQGTLVTVSS
notes: monovalent anti-LTBR VHH; also called 1.2 (parental clone for 1.5)
B5: Clone 1.4 (VHH, not shown: small tags and cut ends)
VHH: EVQLVESGGGLVQPGGSLRLSCKASGTTFSDRAFGWYRQAPGKQRELVATISTAGLTWYDVSVKGRFIISRDNPENTVYLQMNSLRPEDTAVYYCNTFRGNWGQGTLVTVSS
notes: monovalent anti-LTBR VHH; also called 1.4 (parental clone for 1.6)
B6: Clone 1.1 (VHH, not shown: small tags and cut ends)
VHH: EVQLVESGGGLVQPGGSLRLSCAASGRFFGIYDMYWYRQPPGKQRELVAISTSGGHTNYADSVKGRFTISRDNAKNTVYLQMNSLRPEDTAVYYCNIQRVDAPGMYWGQGTLVTV
notes: monovalent anti-LTBR VHH; also called 1.1 (parental clone for 1.7)
B7: Clone 1.3 (VHH, not shown: small tags and cut ends)
VHH: EVQLVESGGGLVQPGGSLRLSCAASGRTFTNYRMAWFRQAPGKEREAVAAINWNGGGTYYADSVKGRFTISRDNAKNTVYLQMNSLRPEDTAVYYCAADSTGWGSYFDYWGQGTLVTVSS
notes: monovalent anti-LTBR VHH; also called 1.3 (parental clone for 1.8)
B8: Clone 3.4 (antibody, V domains shown)
VH: EVQLVESGGGLVKPGGSLRLSCVASGFTFSLAWMNWVRQAPGKGLEWVGHIKSRADGGSTDYAAPVKGRFTISRDDSKNTLYLHMNSLKTEDTAVYFCSRFYWNYVLDYWGQGTLVTVSS
VL: DIQMTQSPSSLSASVGDRVTITCRASQSINSYFNWYQQKPGKAPKLLIYAASGLQSGVPSRFSGSGSGTDFTLTISSLQPEDFATYYCQQSYSPPYTFGQGTNLEIK
notes: anti-FAP mAb (bivalent)
B9: Clone 3.1 (antibody, V domains shown)
VH: QLQLQESGPGLVKPSETLSLTCTVSGGSISSSTYYWGWIRQPPGKGLEWIGSIFYSGNTYYNPSLKSRVTISVDTSKNQFSLRLNSVTAADTAVYYCAREIIEPRPGYFDYWGQGTLVTVSS
VL: B8 VL with N30S, S31K, F33L, L46F, G53S, Y92N, P94I, Y96R, N103K, L104V
notes: anti-FAP mAb (bivalent)
B10: Clone 3.2 (antibody, V domains shown)
VH: QVQLVQSGAEVKKPGASVKVSCKASGYTFTGYYMHWVRQAPGQGLEWMGWIYPNTGGTNYAQNFQGRVTMTRDTSISTAYMELSSLRSDDTAVYYCARDDYNKNLDYWGQGTLVTVSS
VL: DIQMTQSPSTLSASVGDRGTITCRASQSIGSWLAWYQQKPGKTPKLLIYKASSLESGVPSRFSGSGSGTEFTLTISSLQPDDFATYYCQQYNSYFRTFGQGTKVEIK
notes: anti-FAP mAb (bivalent)

Where a chain is given by its changes, count along the chain named.

T2 sequence (P36941 other isoform, or with tags, fused parts or gaps C02H C02H limits assumed): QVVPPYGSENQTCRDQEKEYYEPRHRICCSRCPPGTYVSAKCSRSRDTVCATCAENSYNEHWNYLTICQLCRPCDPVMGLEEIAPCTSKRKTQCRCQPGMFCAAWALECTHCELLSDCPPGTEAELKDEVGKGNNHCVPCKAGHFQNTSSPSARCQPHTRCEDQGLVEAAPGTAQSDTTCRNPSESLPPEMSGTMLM

In the first assay the target is T1, human LTBR endogenously expressed on cells (HepG2, A549, A375, HCC1187, RPMI-7951, primary human breast CAFs) (human, UniProt P36941 31-435). Put plainly: cell-based or functional assay.
T1 sequence (P36941 31-435): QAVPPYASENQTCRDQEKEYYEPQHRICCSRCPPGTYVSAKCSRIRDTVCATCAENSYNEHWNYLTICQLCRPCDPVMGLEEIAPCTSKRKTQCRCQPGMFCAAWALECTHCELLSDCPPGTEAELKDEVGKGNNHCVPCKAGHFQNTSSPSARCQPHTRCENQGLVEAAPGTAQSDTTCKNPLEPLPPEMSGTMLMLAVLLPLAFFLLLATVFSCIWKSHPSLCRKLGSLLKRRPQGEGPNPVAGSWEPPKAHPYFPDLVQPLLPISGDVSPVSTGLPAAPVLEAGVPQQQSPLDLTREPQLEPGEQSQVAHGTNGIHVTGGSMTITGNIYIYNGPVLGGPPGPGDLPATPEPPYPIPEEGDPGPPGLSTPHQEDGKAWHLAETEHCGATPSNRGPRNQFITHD
Take B1: the “CCL19 upregulation, HCC1187:CAF Co-culture EC50” value (“CCL19 upregulation” for short) is 0.09 nM.

As to B2, the “CCL19 upregulation” value was 0.06 nM.

On to B3, for which the “CCL19 upregulation” value was found to be 0.12 nM.

A further assay has as its target T2, cynomolgus recombinant LTBR fused on human Fc (SinoBiological, cat. #90101-C02H) (cynomolgus (Macaca fascicularis), UniProt P36941 31-227 (human entry)).
T2 construct: bought protein
Put plainly: SPR (Biacore T200), LTBR-Fc on CM5 chip, periplasmic extract as analyte. How it is done:
(§1) To confirm species cross-reactivity, either human or cynomolgus recombinant LTBR-fused on human Fc (SinoBiological, cat. #10581-H02H and 90101-C02H) were immobilised on CM5 sensor chips (cat. #CFJB 334). 1:5 dilutions of crude periplasmic extracts of clones expressing VHHs were injected at 30 μl/min for 2 min in HBS-EP pH 7.4 buffer to allow for binding to chip-bound antigen. Next, an HBS-EP pH7.4 buffer without VHHs was injected for 5 minutes at the same flow rate to enable spontaneous dissociation of bound VHHs. Surface regeneration was done with 10 ul of 1 mM Glycine pH 1.5/1 M NaCl injected twice between samples. From the sensorgrams obtained on a BiacoreT200 machine, koff values were calculated by fitting a 1:1 interaction model (Langmuir model) using Insight Evaluation Software (Biacore). Based on this analysis, four clones were selected for further evaluation, and the results are included in.
Regarding B4, the koff (commonly a measure of how fast the partners let go of each other) stood at 0.0026 s⁻¹.

Consider B5, for which the koff came out at 0.00097 s⁻¹.

Regarding B6, the koff worked out at 0.0014 s⁻¹.

For B7, the koff was 0.0031 s⁻¹.

For another assay, the target named is T3, human recombinant LTBR fused on human Fc (SinoBiological, cat. #10581-H02H) (human, UniProt P36941 31-227).
T3 construct: bought protein; also called human LTBR human IgG1 Fc chimera protein; not shown: human IgG1 Fc
T3 sequence (P36941 31-227 limits assumed): as the sequence (P36941 other isoform, or with tags, fused parts or gaps C02H C02H limits assumed) above, with V2A, G7A, R24Q, S45I, D163N, R181K, S184L, S186P counted along it
The description is as above. How it is done:
as §1
Consider B4, for which the koff was 0.00069 s⁻¹.

Regarding B5, the koff was found to be 0.0018 s⁻¹.

Turning to B6, the koff was 0.0008 s⁻¹.

As to B7, the koff came to 0.0038 s⁻¹.

Another assay addresses T1, human LTBR endogenously expressed on …. The experiment in a line: cell-based or functional assay. This is another data set of the same source.
In the case of B1, the “HepG2 Reporter assay, HepG2:FAP-CHO-K1 Co-culture EC50” value (“HepG2 Reporter assay” for short) turned out to be 0.016 nM.

Take B2: the “HepG2 Reporter assay” value stood at 0.017 nM.

In the case of B3, the “HepG2 Reporter assay” value was found to be 0.023 nM.

For the next assay the target is unchanged. Put plainly: flow cytometry, HepG2 cells, VHH detected by anti-FLAG. How it is done: The purified proteins were tested for binding to endogenously expressed human LTBR in HepG2 cells. The expression level was confirmed with anti-LTBR clone CBE-11 (“huCBE11” as disclosed in WO2004002431). The HepG2 cells were resuspended to a final concentration of 1.0×10⁶ cells/ml in FACS buffer. A series dilution of purified VHHs was incubated with mouse anti-FLAG biotinylated antibody (Sigma Aldrich, cat. #F9291-1MG) at 5 μg/ml in FACS buffer for 30 min at RT with shaking. Cell suspensions were distributed into a 96-well v-bottom plate and incubated with the above-described VHH/antibody mixture for 1 hour on ice while shaking. VHH binding to cells was detected with streptavidin R-PE (Invitrogen, cat. #.SA10044) at 1:400 dilution (0.18 μg/ml) in FACS buffer, incubated for 30 minutes on ice with shaking and protection from light. The cells were acquired by flow cytometry. The data was analysed using FloJo V10 and GraphPad Prism. The EC50 values can be found in.
B4: the EC50 (as a rule, the concentration that produces a half-maximal response) came out at 1.6 nM.

As to B5, the midpoint of the response, the EC50, lay at 2.3 nM.

Turning to B6, the midpoint of the response, the EC50, lay at 0.41 nM.

As for B7, a half-maximal response (EC50) required 1.2 nM.

For the next assay the target is unchanged. Put plainly: cell-based or functional assay. This is another data set of the same source.
As to B1, the “chemokine (CCL5) induction in RPMI-7951 EC50” value (“chemokine (CCL5) induction” for short) stood at 0.0078 nM.

In the case of B2, the “chemokine (CCL5) induction” value stood at 0.01 nM.

B3: the “chemokine (CCL5) induction” value worked out at 0.067 nM.

A further assay concerns the target T4, human FAP expressed on cells (transfected HEK293; FAP-CHO-K1 recombinant cell line, BPS cat no. 79947) (human, UniProt Q12884 1-760).
T4 construct: also called HuFAP-HEK293; Hek-FAP
The experiment in a line: flow cytometry, human FAP-transfected HEK293 cells. How it is done:
The binding of antibodies to human FAP expressed on transfected HEK293 cells was measured by FACS. In addition, binding to parental HEK293 was tested to confirm antibody specificity. In short, the cells were resuspended in the FACS binding buffer and live/dead efluro450 viability dye was added at a 1:1000 dilution to the cell suspension, followed by incubation at room temperature in the dark for 30 minutes. The cells were then diluted to 2 e5/ml, and 100 ul was added to wells of a 96-well U-bottom plate as required. […] The cells were pelleted by centrifugation, and the supernatant was discarded, followed by the addition of a series of dilutions of anti-FAP antibodies and incubation for 45 minutes at 4° C. in the dark. Cells were washed two times with PBS with 3% (w/v) BSA before adding 60 ul of fluorescently labelled secondary antibody (goat anti-human IgG) diluted to 1:200 in PBS. Incubation continued at 4 C for at least 30 minutes, followed by two washes in PBS pH 7.4. Cells were either fixed with 2% PFA (30 minutes at 4° C.) followed by washout and storage in 100 ul of PBS or immediately analysed on a Flow Cytometer. The data was analysed using FloJo V10 and GraphPad Prism. No binding to the HEK parental cell line was detected for any tested clones, confirming the specific interaction between anti-FAP antibodies and the FAP receptor. The results are summarised in.
On to B8, for which the EC50 came out at 1.1 nM.

Take B9: the EC50 came out at 1.7 nM.

On to B10, for which the concentration giving a half-maximal response (EC50) came out at 0.7 nM.

The target of a further assay is T4, human FAP expressed on cells …. The experiment in a line: flow cytometry, HEK293-FAP overexpressing cells. In general terms: Flow cytometry measures light scatter and fluorescence of single cells or particles in a stream.
Consider B1, for which the EC50 was 0.4 nM.

B2: the EC50 stood at 0.8 nM.

For the molecule B3, the EC50 turned out to be 1 nM.

The next assay has as its target Human FAP (Acro), recombinant protein (human, UniProt Q12884 26-760). Put plainly: SPR (Carterra LSA), antibody captured by anti-human Fc, FAP as analyte. How it is done:
(§2) Binding of anti-FAP antibodies to human and cynomolgus FAP was investigated by Surface Plasmon Resonance (SPR) on Carterra LSA. An EC30M chip was used to capture the test antibodies. The chip was activated for bioconjugation using EDC and sNHS in MES pH 5.5 to prepare the chip for amine coupling. Goat anti-human IgG Fc antibody was then captured to the chip via incubation for 10 minutes. Excess conjugation sites were quenched with 1M Ethanolamine pH 8. To measure monovalent binding kinetics, antibodies were printed/spotted onto the chip and allowed to bind to the goat antibody, followed by subsequent washing. After the preparation, the printed chip was exposed to repeated rounds of association and dissociation with increasing analyte concentrations. In this work, recombinant proteins (Human FAP (Acro) or cyno FAP His (Acro)) were serially diluted across a range starting at 1500 nM with 3-fold dilutions and 10 points. The curves were fitted to global fit in a 1:1 binding model to obtain KD values. The binding affinity to both human and cynomolgus FAP is reported in.
As for B8, the Kd – broadly, the concentration at which binding is half-saturated – worked out at 0.033 nM.

B9: the Kd was 0.04 nM.

In the case of B10, the Kd is 0.047 nM.

A further assay has as its target T5, cyno FAP His (Acro), recombinant protein (cynomolgus (Macaca fascicularis), UniProt Q12884 26-760 (human entry)).
T5 construct: bought protein used as analyte on Carterra LSA
Described as above. How it is done:
as §2
For the molecule B8, the Kd was found to be 0.03 nM.

With B9, the Kd was 0.051 nM.

As to B10, the Kd was determined as 0.028 nM.
